B1: NONO-DBHS (non-POU domain-containing octamer-binding protein, aa53–312) (domain or fragment, human, UniProt Q15233 53-312, looked up)
chain: EGLTIDLKNFRKPGEKTFTQRSRLFVGNLPPDITEEEMRKLFEKYGKAGEVFIHKDKGFGFIRLETRTLAEIAKVELDNMPLRGKQLRVRFACHSASLTVRNLPQYVSNELLEEAFSVFGQVERAVVIVDDRGRPSGKGIVEFSGKPAARKALDRCSEGSFLLTTFPRPVTVEPMDQLDDEEGLPEKLVIKNQQFHKEREQPPRFAQPGSFEYEYAMRWKALIEMEKQQQDQVDRNIKEAREKLEMEMEAARHEHQVMLM
notes: Cloned into the first expression cassette of pET-Duet1; also called NONO homodimer; P54nrb; not shown: His6, N-terminal, cleaved
B2: PSPC1-DBHS (paraspeckle protein component 1, aa61–320) (domain or fragment, human, UniProt Q8WXF1 61-320, looked up)
chain: MGFTIDIKSFLKPGEKTYTQRCRLFVGNLPTDITEEDFKRLFERYGEPSEVFINRDRGFGFIRLESRTLAEIAKAELDGTILKSRPLRIRFATHGAALTVKNLSPVVSNELLEQAFSQFGPVEKAVVVVDDRGRATGKGFVEFAAKPPARKALERCGDGAFLLTTTPRPVIVEPMEQFDDEDGLPEKLMQKTQQYHKEREQPPRFAQPGTFEFEYASRWKALDEMEKQQREQVDRNIREAKEKLEAEMEAARHEHQLMLM
notes: human PSPC1, conserved DBHS region, aa61–320 relative to UniProt entry PSPC1_HUMAN; also called PSPC1 homodimer; PSPC1 (aa61–320); source: E. coli Rosetta2 (DE3), purified (Ni Hi-Trap, TEV digestion, reverse Hi-Trap, Superdex 200)

Tests used:
[1] = target: the molecule itself; experiment: crystal structure; NONO aa53–312 homodimer; six dimers (12 monomers) in the asymmetric unit; 2.60 Å; crystallization and phasing described in ref. 38
[2] = target: the molecule itself; experiment: crystal structure; PSPC1 aa61–320 homodimer; one dimer in the asymmetric unit; 3.17 Å; hanging drop, 100 mM malic acid pH 7.0, 28% PEG 3350, 100 mM Tris pH 7.0

Row | Protein | binding result [1] | binding result [2]
1 | B1 | binds | –
2 | B2 | – | binds

— paper PMC8754649, “Structural basis of dimerization and nucleic acid binding of human DBHS proteins NONO and PSPC1” (Nucleic Acids Research, 2021)
